Experiments:
APSA(200)-TrxA = biological target: T1, APSA(200)-TrxA; assay: SPR, biotinylated antigen on CAPture chip, Fab as analyte, 1:1 model
T1 construct: Biotinylated and immobilised on a biotin CAPture chip; also called thioredoxinA-APSA(200)

Pga-APSAAPSAAPSA = biological target: T2, Pga-APSAAPSAAPSA (N-terminal pyroglutamyl residue (Pga), counted as P1 in the structure); assay: co-crystal structure of the recombinant Fab with the peptide
T2 construct: Peptide ligand co-crystallised with the Fab of MAb 3.1; also called Pga-(APSA)3 peptide; (APSA)3 peptide
T2 peptide: APSAAPSAAPSA

APSA(200)-IL1Ra [1] = biological target: T3, APSA(200)-IL1Ra; assay: ELISA, Fab titrated on coated APSA(200)-IL1Ra
T3 construct: Fusion protein produced in E. coli; Labelled with DIG-NHS in the MAb capture ELISA

APSA(200)-IL1Ra [2] = biological target: T3, APSA(200)-IL1Ra; assay: ELISA, antigen coated, Fab titrated
APSA(200)-IL1Ra [3] = biological target: T3, APSA(200)-IL1Ra; assay: SPR, MAb from hybridoma supernatant captured by anti-mouse antibody, antigen as analyte, bivalent analyte model
IL1Ra (Kineret/Anakinra) = biological target: T4, IL1Ra (Kineret/Anakinra) (UniProt P18510 26-177); assay: western blot, hybridoma supernatant 1:2000
T4 construct: Commercial drug product; also called non-PASylated protein version

APSA(200)-IL1Ra [4] = biological target: T3, APSA(200)-IL1Ra; assay: MAb capture ELISA, hybridoma supernatant on anti-mouse IgG Fc, DIG-labelled antigen titrated
PAS #1(200)-IL1Ra [5] = biological target: T5, PAS #1(200)-IL1Ra; assay: Western blot of the fusion protein after SDS-PAGE; anti-mouse IgG Fc-AP, BCIP/NBT [D]
T5 construct: PASylated fusion protein produced in E. coli; Biotinylated for the SPR measurements with Fabs

P/A #1 sequence = biological target: T6, P/A #1 sequence; assay: ELISA and SPR with Fabs
T6 construct: in sentences on specificity it stands for P/A #1 polypeptides in general
T6 peptide: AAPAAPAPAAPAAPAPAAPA

H1GA-PAS #1(200)-His6 = biological target: T7, H1GA-PAS #1(200)-His6; assay: affinity chromatography of a periplasmic extract on Fab coupled to a 1 ml HiTrap column, elution with 1 M L-prolinamide; blank-corrected A280 trace and SDS-PAGE [B]
T7 construct: also called C-terminally PASylated Anticalin H1GA-PAS #1(200)-His6
T7 chain: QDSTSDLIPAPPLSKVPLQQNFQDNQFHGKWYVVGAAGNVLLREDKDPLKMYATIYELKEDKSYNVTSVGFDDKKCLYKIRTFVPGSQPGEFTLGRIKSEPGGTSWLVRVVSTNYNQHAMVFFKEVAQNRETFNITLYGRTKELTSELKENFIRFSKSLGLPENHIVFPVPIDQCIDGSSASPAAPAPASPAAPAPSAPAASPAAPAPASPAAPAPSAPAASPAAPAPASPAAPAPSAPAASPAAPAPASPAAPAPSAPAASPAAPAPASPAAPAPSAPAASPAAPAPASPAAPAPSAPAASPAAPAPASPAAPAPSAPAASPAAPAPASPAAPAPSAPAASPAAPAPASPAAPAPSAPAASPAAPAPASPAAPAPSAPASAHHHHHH

StrepII-eGFP-PAS #1(200) = biological target: T8, StrepII-eGFP-PAS #1(200); assay: affinity chromatography on Fab coupled to a 1 ml HiTrap NHS column, elution with 1 M L-prolinamide; A280/A488 traces and SDS-PAGE of the fractions
T8 construct: also called StrepII-eGFP-PAS #1(200) fusion protein

PAS #1(200)-IL1Ra [6] = biological target: T5, PAS #1(200)-IL1Ra; assay: SPR, biotinylated antigen on CAPture chip, Fab as analyte, 1:1 model
IL1Ra-PAS#1(800) = assay: ELISA, Fab titrated on IL1Ra-PAS#1(800) (x axis: Fab concentration)
PAS #1(600)-Leptin [7] = biological target: T9, PAS #1(600)-Leptin; assay: ELISA, Fab titrated on PAS#1(600)-Leptin (x axis: Fab concentration)
T9 chain: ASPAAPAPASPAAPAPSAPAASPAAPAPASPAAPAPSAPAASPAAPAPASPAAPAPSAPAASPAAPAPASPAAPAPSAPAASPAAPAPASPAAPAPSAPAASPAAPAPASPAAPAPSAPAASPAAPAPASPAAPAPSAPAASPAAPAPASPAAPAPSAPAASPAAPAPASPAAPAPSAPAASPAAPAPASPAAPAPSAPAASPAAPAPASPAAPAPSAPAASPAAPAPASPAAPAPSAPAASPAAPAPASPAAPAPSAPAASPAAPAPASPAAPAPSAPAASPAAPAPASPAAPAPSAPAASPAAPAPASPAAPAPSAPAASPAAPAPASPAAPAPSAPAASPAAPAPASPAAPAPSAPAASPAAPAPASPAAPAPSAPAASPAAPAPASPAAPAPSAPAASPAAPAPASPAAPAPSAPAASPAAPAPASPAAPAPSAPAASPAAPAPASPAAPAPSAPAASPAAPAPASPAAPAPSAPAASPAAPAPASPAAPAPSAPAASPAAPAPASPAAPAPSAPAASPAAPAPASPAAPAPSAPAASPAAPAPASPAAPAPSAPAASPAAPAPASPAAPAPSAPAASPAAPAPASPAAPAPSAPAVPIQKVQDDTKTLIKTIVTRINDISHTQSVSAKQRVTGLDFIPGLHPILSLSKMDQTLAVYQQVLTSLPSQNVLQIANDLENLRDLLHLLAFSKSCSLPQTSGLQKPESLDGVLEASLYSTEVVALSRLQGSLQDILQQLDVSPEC

P/A#1(600)-GMCSF = assay: ELISA, Fab titrated on P/A#1(600)-GMCSF
PAS #1(600)-Leptin [8] = biological target: T9, PAS #1(600)-Leptin; assay: ELISA, antigen coated, Fab titrated

T4 sequence (P18510 26-177 limits assumed): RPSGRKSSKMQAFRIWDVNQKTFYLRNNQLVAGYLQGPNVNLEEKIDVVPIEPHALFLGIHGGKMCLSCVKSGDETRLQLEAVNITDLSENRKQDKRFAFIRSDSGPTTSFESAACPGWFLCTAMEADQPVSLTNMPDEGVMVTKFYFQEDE

B1: Fab fragment of Anti-PA(S) MAb 3.1 (Fab, V domains shown)
VH: QVQLQQSGAELVRPGASVKLSCKALGYIFTDYEMHWVKQTPVHGLEWIGVIHPGSGNTVYNQKFQGKATLTADKSSSTAYMEVSSLTSEDSAVYYCNLWGRWGQGTTLTVSS
VL: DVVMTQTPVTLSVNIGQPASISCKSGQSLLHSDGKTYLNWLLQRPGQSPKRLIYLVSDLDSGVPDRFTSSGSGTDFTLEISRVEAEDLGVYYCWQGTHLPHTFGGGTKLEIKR
notes: also called Anti-PA(S) MAb 3.1 Fab; anti-APSA antibody fragment
Kd (APSA(200)-TrxA): 2.5 nM
binding result (Pga-APSAAPSAAPSA): binds
EC50 (read off the curve) (APSA(200)-IL1Ra [1]): ~2 nM
Kd (APSA(200)-IL1Ra [2]): 1.9 nM

B2: Anti-PA(S) MAb 3.1 (antibody, V domains shown)
VH: QVQLQQSGAELVRPGASVKLSCKALGYIFTDYEMHWVKQTPVHGLEWIGVIHPGSGNTVYNQKFQGKATLTADKSSSTAYMEVSSLTSEDSAVYYCNLWGRWGQGTTLTVSS
VL: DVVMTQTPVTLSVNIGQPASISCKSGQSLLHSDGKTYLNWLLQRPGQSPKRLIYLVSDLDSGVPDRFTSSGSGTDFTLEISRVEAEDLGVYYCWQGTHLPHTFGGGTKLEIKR
notes: Mouse monoclonal IgG from hybridoma (culture supernatant); also called DSM ACC3367
Kd (APSA(200)-IL1Ra [3]): 0.019 nM
binding result (IL1Ra (Kineret/Anakinra)): no binding
Kd (APSA(200)-IL1Ra [4]): 0.118 nM
binding result (PAS #1(200)-IL1Ra [5]): no binding (tested: hybridoma supernatant diluted 1:2000)

B3: Fab fragment of Anti-PA(S) MAb 1.2 (Fab, V domains shown)
VH: QVQLVESGGGLVQPGGSLKLSCAASGFTFSSYGMSWVRQTPDKRLELVATINSNGGSTYYLDSVKGRFTISRDKAKNTLYLQMSSLKSEDTAMYYCVRGGSIYDGYDYAMDYWGQGTSVTVSS
VL: DIVLTQSPASLAVSLGQRATISCRASQSVSTSSYSYMHWFQQKPGQPPKLLIKYASNLESGVPARFSGSGSGTDFTLNIHPVEEEDTATYYCQHSWEIPLTFGAGTKLELKR
notes: also called Anti-PA(S) MAb 1.2 Fab; anti-PAS Fab 1.2
binding result (P/A #1 sequence): no binding
binding result (H1GA-PAS #1(200)-His6): binds
binding result (StrepII-eGFP-PAS #1(200)): binds
Kd (PAS #1(200)-IL1Ra [6]): 3700 nM
EC50 (read off the curve) (IL1Ra-PAS#1(800)): ~200 nM
EC50 (read off the curve) (PAS #1(600)-Leptin [7]): ~100 nM
binding result (P/A#1(600)-GMCSF): no binding (tested: 4000 nM)
Kd (PAS #1(600)-Leptin [8]): 123 nM

— US20240294632A1 (XL PROTEIN, published 2024)
